# Test results: paper doi:10.1101/2021.02.16.431021 (bioRxiv, 2021)
# Molecular target: the molecule itself
# Assay: crystal structure
protein,measurement,value
SARS-CoV main protease (M^pro) (enzyme) SGFRKMAFPSGKVEGCMVQVTCGTTTLNGLWLDDTVYCPRHVICTAEDMLNPNYEDLLIRKSNHSFLVQAGNVQLRVIGHSMQNCLLRLKVDTSNPKTPKYKFVRIQPGQTFSVLACYNGSPSGVYQCAMRPNHTIKGSFLNGSCGSVGFNIDYDCVSFCYMHHMELPTGVHAGTDLEGKFYGPFVDRQTAQAAGTDTTITLNVLAWLYAAVINGDRWFLNRFTTTLNDFNLVAMKYNYEPLTQDHVDILGPLSAQTGIAVLDMCAALKELLQNGMNGRTILGSTILEDEFTPFDVVRQCSGVTFQ,binding result,binds
